The source of these data is paper PMC3817407.

Several values for one entry are separate records, joined by “and”; a condition that tells them apart may be missing. Equal entries are not always repeated.

Test [1] addresses T1, ECF22_1147.
T1 chain: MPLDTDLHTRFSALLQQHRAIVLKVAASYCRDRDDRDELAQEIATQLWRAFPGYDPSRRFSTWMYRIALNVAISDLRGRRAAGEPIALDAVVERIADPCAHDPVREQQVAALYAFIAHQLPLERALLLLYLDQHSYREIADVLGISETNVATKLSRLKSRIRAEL

Test [2] deals with T2, ECF28_1040.
T2 chain: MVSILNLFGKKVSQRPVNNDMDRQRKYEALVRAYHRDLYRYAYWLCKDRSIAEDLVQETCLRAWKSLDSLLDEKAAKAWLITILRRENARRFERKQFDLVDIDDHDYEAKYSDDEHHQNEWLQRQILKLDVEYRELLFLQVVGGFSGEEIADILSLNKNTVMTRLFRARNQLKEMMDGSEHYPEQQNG

Test [3] concerns the target ECF26_4464.
In test [4] the target is T3, ECF37_2513.
T3 chain: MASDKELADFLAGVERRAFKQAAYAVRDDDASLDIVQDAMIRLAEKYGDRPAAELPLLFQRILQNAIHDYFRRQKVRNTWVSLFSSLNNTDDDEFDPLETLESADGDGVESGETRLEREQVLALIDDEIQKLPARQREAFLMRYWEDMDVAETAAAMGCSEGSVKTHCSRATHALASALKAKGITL

Test [5] concerns the target T4, ECF03_1198.
T4 chain: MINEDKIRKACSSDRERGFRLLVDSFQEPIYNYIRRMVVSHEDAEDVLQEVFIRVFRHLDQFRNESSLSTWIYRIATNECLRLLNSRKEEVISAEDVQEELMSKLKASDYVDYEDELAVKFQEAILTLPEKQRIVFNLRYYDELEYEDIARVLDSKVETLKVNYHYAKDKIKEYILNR

Test [6] has as its target T5, ECF25_1645.
T5 chain: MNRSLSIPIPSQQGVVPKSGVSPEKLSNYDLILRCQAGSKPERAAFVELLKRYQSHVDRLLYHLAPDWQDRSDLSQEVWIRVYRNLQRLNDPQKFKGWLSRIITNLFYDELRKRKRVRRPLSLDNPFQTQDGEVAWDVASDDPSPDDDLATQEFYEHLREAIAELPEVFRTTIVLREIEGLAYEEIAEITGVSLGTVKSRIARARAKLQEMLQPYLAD

For test [7], the target named is T6, ECF02_915.
T6 chain: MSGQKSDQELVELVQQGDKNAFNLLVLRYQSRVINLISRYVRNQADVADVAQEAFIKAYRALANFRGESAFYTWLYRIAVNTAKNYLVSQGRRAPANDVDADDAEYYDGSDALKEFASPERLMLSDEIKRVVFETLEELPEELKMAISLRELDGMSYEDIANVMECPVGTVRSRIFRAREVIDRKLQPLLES

For test [8], the target named is T7, ECF38_1322.
T7 chain: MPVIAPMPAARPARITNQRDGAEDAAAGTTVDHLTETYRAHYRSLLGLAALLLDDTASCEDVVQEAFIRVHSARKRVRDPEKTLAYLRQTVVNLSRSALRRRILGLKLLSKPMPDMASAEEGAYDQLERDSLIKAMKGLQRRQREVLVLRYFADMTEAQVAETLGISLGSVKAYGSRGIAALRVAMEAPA

The target of test [9] is T8, ECF25_1643.
T8 chain: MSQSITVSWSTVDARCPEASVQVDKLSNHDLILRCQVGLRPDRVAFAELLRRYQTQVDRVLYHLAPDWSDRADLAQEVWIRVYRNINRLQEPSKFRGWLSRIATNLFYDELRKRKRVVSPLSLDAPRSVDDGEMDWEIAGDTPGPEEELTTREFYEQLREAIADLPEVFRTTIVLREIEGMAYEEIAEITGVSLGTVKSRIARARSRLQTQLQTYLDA

The target in test [10] is T9, ECF35_3582.
T9 chain: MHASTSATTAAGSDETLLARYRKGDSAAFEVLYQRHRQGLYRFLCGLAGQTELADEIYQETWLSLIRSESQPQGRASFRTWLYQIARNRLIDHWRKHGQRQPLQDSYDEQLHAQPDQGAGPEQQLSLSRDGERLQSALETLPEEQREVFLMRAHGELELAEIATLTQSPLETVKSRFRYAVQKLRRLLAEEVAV

Test [11] addresses T10, ECF03_1244.
T10 chain: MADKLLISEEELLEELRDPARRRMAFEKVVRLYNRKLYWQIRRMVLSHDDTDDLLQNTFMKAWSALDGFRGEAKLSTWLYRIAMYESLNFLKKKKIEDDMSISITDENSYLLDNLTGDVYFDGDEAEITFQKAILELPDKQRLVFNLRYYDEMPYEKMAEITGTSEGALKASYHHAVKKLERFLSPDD

Test [12] concerns the target T11, ECF28_1088.
T11 chain: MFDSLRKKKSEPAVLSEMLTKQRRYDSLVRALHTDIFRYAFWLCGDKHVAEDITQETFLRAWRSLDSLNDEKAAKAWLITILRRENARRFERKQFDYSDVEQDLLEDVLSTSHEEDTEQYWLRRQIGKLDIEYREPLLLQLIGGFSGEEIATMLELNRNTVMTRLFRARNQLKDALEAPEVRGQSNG

Test [13] deals with T12, ECF01_3473.
T12 chain: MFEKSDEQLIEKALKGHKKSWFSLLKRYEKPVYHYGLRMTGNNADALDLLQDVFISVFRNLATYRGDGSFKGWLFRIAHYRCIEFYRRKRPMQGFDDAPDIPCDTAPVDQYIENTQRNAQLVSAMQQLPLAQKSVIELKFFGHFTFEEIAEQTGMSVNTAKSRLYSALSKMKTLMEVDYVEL

For test [14], the target named is T13, ECF20_992.
T13 chain: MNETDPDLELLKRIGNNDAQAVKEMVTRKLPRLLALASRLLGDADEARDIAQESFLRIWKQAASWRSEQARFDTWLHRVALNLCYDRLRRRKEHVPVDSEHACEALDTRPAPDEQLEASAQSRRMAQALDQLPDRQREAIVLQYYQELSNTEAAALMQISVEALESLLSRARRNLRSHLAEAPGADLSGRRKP

The target in test [15] is T14, ECF15_524.
T14 chain: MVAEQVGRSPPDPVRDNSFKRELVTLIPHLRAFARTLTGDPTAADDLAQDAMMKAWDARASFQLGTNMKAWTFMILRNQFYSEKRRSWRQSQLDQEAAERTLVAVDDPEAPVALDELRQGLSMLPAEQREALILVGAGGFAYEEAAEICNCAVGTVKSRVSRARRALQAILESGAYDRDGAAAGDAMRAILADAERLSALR

B1: AS31_34 (protein)
chain: MNKEKLSDHLKSEWKKIDQTANPSIPNQKELLHQLSQMKAEYRKKLLQEIILFVFCALMVVSAAILAFTQAPAVFIVLQVCVLAVLPILIAAEKKRHLGECEVKRG
Regarding B1, the fold repression was 3.62 in test [1]; 2.22 in test [2]; 3.63 in test [3]; 3.38 in test [4]; 2.96 in test [5]; 1.99 in test [6]. For the same molecule, the fold repression in test [7] was 1.32; in test [8] it was 2.06; in test [9], 2.25 and 1.91; in [10], 2.06; in [11] it was 2.34; in [12] it was 1.59. Further, the results for the fold repression in test [13], in [14] and in test [15] were 1.76, 2.35 and 2.19, respectively.

B2: AS35_3582 (protein)
chain: MNPQKHSASVAEEQMLAHFRAHAPQQPAPALDQAILAAARRQAAHVEPARSWWRRWLEASRRPRWQAAFASLLGVALVLGLVSHNVLDDAERQARPEVAFSDVPLRDGVAGAAAAKRAMRAPAAPAPLSGEMSEPPALLASYASSGEAPQLMAEAAPPAPAALADRPPAQAAQQAKVQAALAGDFVAQARGKAVAVKPEVLDEALGAVLALREQGKTEQAATQLAELQKRFPGENLVERLERLATIAASARKRP
Turning to B2, the fold repression in test [1] came to 10.9; in [2], 2.76; in test [3], 10.7; in test [4], 8.97; in [5], 6.26; in [6], 3.79. Moreover, the fold repression in test [7] was 3.95; in [8], 3.42; in test [9] it was 5.68 and 4.69; in test [10], 311; in [11], 4.18; in test [12], 3.76. The fold repression in test [13] was determined as 5.93; in test [14] it was 3.26; in test [15], 5.37.

B3: AS30_35 (protein)
chain: MDKRLQQLREEYKNVQIPKELDIIVEKALQQEPKKKRIVMWPTSAAIAAAILFTALVNINPDAAQAMSKIPVIGKIVKAITFIEIKEEKDQSSIDVKTPALSGLSNKELENSINEKYLKESQQLYKEFIQSTSKNKKGHLSIYSDYETVTDTPDLLSIRRNIETTQASSYTQSRYITIDKKNDILLTLKSLFKDERYIKVISQNIKEQMKQQMKEDPNKIYWLTDEDAEPFKTILPDQTFYITEDHKLVISFDEYEVAPGYMGVTEFTIPTGVISNLLVGERYIR
B3: the fold repression in test [1] was 2.12; in [2], 1.32; in test [3], 2.19; in test [4] it was 2.3; in [5], 1.96; in test [6] it was 1.69. The fold repression in test [7] was 2.15; in [8], 1.84; in test [9], 1.46 and 1.19; in test [10] it was 6.57; in test [11], 1.74; in [12], 1.68. The fold repression is 1.65 in test [13], 2.34 in [14] and 1.74 in test [15].

B4: AS33_375 (protein)
chain: MMALSKKMLEQEPSEIELLLPWHAAGTLNARDARRVEDALARDPELAKQYAAIRGEYEETIHLNESLGAPSARAMQKLFGAIDAEPARETGSLPLSARIATFFASLSPRTLAWSASLGAVALVLQAGIIGAVLMKTQPTTFQTASLSTSAPITRELGAAVAPARALVRFTPEARVADITALLDSYQASIIGDAKGGMFRLQFDKAMSQDELASLLGRMQREKFVNLAVAAP
Turning to B4, the fold repression amounted to 12.9 in test [1]; 3.33 in [2]; 14.1 in [3]; 13.5 in test [4]; 21.3 in test [5]; 5.35 in test [6]. Also, the fold repression in [7] was 4.71; in test [8], 7.66; in test [9], 5.97 and 4.93; in [10], 5.86; in [11], 16.3; in [12] it was 3.72. Besides, the fold repression in test [13] was found to be 5.29; in test [14] it was 20.7; in test [15] it was 14.3.

B5: AS33_423 (protein)
chain: MMAMSNTMPDPREPGDVEALLPWYAAGTLNARDARRVADALDRDPALARQYAVILEEYASTIELNESLGAPSSRAMQKLFAAIDAEPARAPGAGQGLGARFAGFFAGLSPKALAWSASVAGLALLLQAGLIGALLTWPHAAPVQTAAYQPQREVARAPASSPAPATVSPPAAAMADRAADAGKSTPPMVMAERSGGPVVRSLAPQSGPRVLVKFAPEARASEIAALLDQYNAVVVDSSRGGLFRLQFGTQSLSKQDQETLIGRLQKEPVVSVVLSAP
With B5, the fold repression worked out at 9.02 in test [1]; 2.67 in [2]; 9.42 in test [3]; 10 in test [4]; 15 in test [5]; 3.68 in test [6]. The fold repression in test [7] was 4.97; in [8], 5.66; in test [9], 3.19 and 2.96; in test [10], 6.37; in test [11] it was 13.5; in [12], 3.17. For the same molecule, the fold repression worked out at 3.36 in test [13], 14.2 in test [14] and 9.15 in [15].
